Among the data in article PMC5587573 are stoichiometry N values, retold here.

For this assay, the target named is T1, Escherichia coli trigger factor (Escherichia coli), P0A850.
T1 chain: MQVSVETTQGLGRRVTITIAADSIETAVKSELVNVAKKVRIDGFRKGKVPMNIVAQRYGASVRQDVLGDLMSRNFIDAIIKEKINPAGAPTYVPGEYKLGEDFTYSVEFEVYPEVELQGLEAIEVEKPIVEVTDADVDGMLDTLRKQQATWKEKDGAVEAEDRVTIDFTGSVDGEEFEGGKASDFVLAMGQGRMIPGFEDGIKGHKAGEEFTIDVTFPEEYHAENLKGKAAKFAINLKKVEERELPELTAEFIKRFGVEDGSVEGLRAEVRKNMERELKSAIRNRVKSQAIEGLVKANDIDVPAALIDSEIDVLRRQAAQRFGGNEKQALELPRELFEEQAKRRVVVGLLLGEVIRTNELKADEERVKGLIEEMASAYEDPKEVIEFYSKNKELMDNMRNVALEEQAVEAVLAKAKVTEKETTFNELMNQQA
In words: SAXS (static); five to eight protein concentrations; 20 mM Tris pH 7.5, 150 mM KCl; 20 °C; BM29 beamline, ESRF; self-association. Particulars: remark: other sources report otherwise.

B1: Escherichia coli trigger factor, P0A850 1-432 (natural protein)
chain: MQVSVETTQGLGRRVTITIAADSIETAVKSELVNVAKKVRIDGFRKGKVPMNIVAQRYGASVRQDVLGDLMSRNFIDAIIKEKINPAGAPTYVPGEYKLGEDFTYSVEFEVYPEVELQGLEAIEVEKPIVEVTDADVDGMLDTLRKQQATWKEKDGAVEAEDRVTIDFTGSVDGEEFEGGKASDFVLAMGQGRMIPGFEDGIKGHKAGEEFTIDVTFPEEYHAENLKGKAAKFAINLKKVEERELPELTAEFIKRFGVEDGSVEGLRAEVRKNMERELKSAIRNRVKSQAIEGLVKANDIDVPAALIDSEIDVLRRQAAQRFGGNEKQALELPRELFEEQAKRRVVVGLLLGEVIRTNELKADEERVKGLIEEMASAYEDPKEVIEFYSKNKELMDNMRNVALEEQAVEAVLAKAKVTEKETTFNELMNQQA
As for B1, the stoichiometry N (as a rule, the number of molecules, sites or subunits per partner or assembly) came out at 2.
